To fix the notation:
B1: TPR t1 (parent)
chain: GACCAAUCUGCCCUCAGAGCUCGAGAACAUCUUCGGAUGCAGAGGAGGCAGGCUUCGGUGGCGCGAUAGCGCCAACGUCCUCAACCUCCAAUGCAUCCCACCACAUGAUGAUGCCUGAAGAGCCUUGGUUUUUUG

The variants in the data set derive from B1. Put plainly: polymerase ribozyme fitness, log enrichment relative to wild type (log ratio); higher = more active; in vitro selection for triplet polymerase activity. The gist of the method:
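One round of in vitro selection, in triplicate, was applied to PCR-built, transcribed mutant libraries of each subunit of a heterodimeric triplet polymerase ribozyme. The steps were annealing with a biotinylated primer, partner subunit and triplets, incubation frozen at −7 °C, gel excision of extended constructs, streptavidin-bead capture and RT-PCR. Fitness is the logarithm, base 2, of genotype enrichment over wild-type enrichment from inverse-variance-weighted replicate averages of Illumina-sequenced inputs and outputs, keeping genotypes with ≥10 input reads and ≥1 read per output.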
Regarding A37G C76G C80G, the “polymerase ribozyme fitness (log ratio)” value was -6.38.

In the case of G36C G47A G110A G127U, the “polymerase ribozyme fitness (log ratio)” value is -2.57.

Regarding A37G C115U, the “polymerase ribozyme fitness (log ratio)” value is -0.85.

With U38A G42A, the “polymerase ribozyme fitness (log ratio)” value was -2.86.

Take G36U G48U U78A: the “polymerase ribozyme fitness (log ratio)” value is -2.21.

G35A C62U: the “polymerase ribozyme fitness (log ratio)” value was -4.22.

G35A C62A: the “polymerase ribozyme fitness (log ratio)” value is -5.05.

As to A37G U55C C56A C88A, the “polymerase ribozyme fitness (log ratio)” value is -4.55.

As to A37C C56G U125A, the “polymerase ribozyme fitness (log ratio)” value was -1.58.

Consider G36A G71U U106A, for which the “polymerase ribozyme fitness (log ratio)” value is -1.11.

Take G36A A46U G47C C56U U106A: the “polymerase ribozyme fitness (log ratio)” value was -3.75.

With G36C G61U C70G C80U U81A C88U C104A C114G, the “polymerase ribozyme fitness (log ratio)” value is -6.29.

With G36A G51U G120A, the “polymerase ribozyme fitness (log ratio)” value is -3.42.

Turning to A37G G113C, the “polymerase ribozyme fitness (log ratio)” value is -2.15.

Consider A37G G113A, for which the “polymerase ribozyme fitness (log ratio)” value is -1.4.

Turning to G35A U78C, the “polymerase ribozyme fitness (log ratio)” value is -3.74.

Take G35A C73A: the “polymerase ribozyme fitness (log ratio)” value is -3.7.

On to A37U C72U A75U U78G C124A, for which the “polymerase ribozyme fitness (log ratio)” value came to 1.33.

Regarding G36A G44U C70U A111C, the “polymerase ribozyme fitness (log ratio)” value was -2.48.

Take G36A C89U C94G C114U: the “polymerase ribozyme fitness (log ratio)” value is -5.66.

On to A37U G61U, for which the “polymerase ribozyme fitness (log ratio)” value is -0.28.

In the case of A37U G61C, the “polymerase ribozyme fitness (log ratio)” value was -1.86.

As to A37G C104U G113A U130G, the “polymerase ribozyme fitness (log ratio)” value is -1.23.

As to A37U G69C, the “polymerase ribozyme fitness (log ratio)” value was -1.75.

As to C34U U54A G61A, the “polymerase ribozyme fitness (log ratio)” value is -4.4.

On to A37G C72U C88G C104U G113A, for which the “polymerase ribozyme fitness (log ratio)” value was -4.89.

Take A37U C80G: the “polymerase ribozyme fitness (log ratio)” value is -5.42.

A37G G60U U112C C123G: the “polymerase ribozyme fitness (log ratio)” value was -0.195.

Regarding G35A C88U C99A, the “polymerase ribozyme fitness (log ratio)” value was -5.74.

Turning to A37C C56A U78C U130C, the “polymerase ribozyme fitness (log ratio)” value is -0.27.

Take G36U C97A: the “polymerase ribozyme fitness (log ratio)” value is -0.428.

As to G36U G60A C94U, the “polymerase ribozyme fitness (log ratio)” value was -1.8.

Turning to G36A A66U C88A C104G G113A C123G C124A, the “polymerase ribozyme fitness (log ratio)” value is -5.59.

Regarding G36A A37G C72U G122A, the “polymerase ribozyme fitness (log ratio)” value is -1.5.

For the variant A37U C97G U112C, the “polymerase ribozyme fitness (log ratio)” value is -4.07.

For C34U C86A C114U, the “polymerase ribozyme fitness (log ratio)” value is -5.07.

For the variant A37G G42C, the “polymerase ribozyme fitness (log ratio)” value was -1.89.

Turning to G35A C72G, the “polymerase ribozyme fitness (log ratio)” value is -2.69.

Consider G35A C72U, for which the “polymerase ribozyme fitness (log ratio)” value is -4.58.

On to A37U U106C A119G, for which the “polymerase ribozyme fitness (log ratio)” value is 0.31.

A37C G39C: the “polymerase ribozyme fitness (log ratio)” value was -4.38.

For the variant G36C A50C G71A A118U G120A, the “polymerase ribozyme fitness (log ratio)” value was -1.49.

As to A37U G63C A68U U78A U106A, the “polymerase ribozyme fitness (log ratio)” value is -5.67.

Consider G36A C56A G61A, for which the “polymerase ribozyme fitness (log ratio)” value is -2.16.

Consider U38A A41C C72U G127U, for which the “polymerase ribozyme fitness (log ratio)” value is -4.53.

Regarding G36C C70U, the “polymerase ribozyme fitness (log ratio)” value is -1.72.

On to G36A G57A G60U U131G, for which the “polymerase ribozyme fitness (log ratio)” value was -0.901.

Turning to A37U A83U U106A, the “polymerase ribozyme fitness (log ratio)” value came out at 0.192.

As for A37U G69C C89U, the “polymerase ribozyme fitness (log ratio)” value was -2.29.

On to G36A U106A G117A, for which the “polymerase ribozyme fitness (log ratio)” value is -1.88.

In the case of A37U A74C C102A C104U, the “polymerase ribozyme fitness (log ratio)” value is -2.41.

On to G36U U38C C72A C115G A118U C124G U131C, for which the “polymerase ribozyme fitness (log ratio)” value was -5.85.

Take A37C A46G G61U C64U: the “polymerase ribozyme fitness (log ratio)” value is -5.42.

Turning to G36U U112A, the “polymerase ribozyme fitness (log ratio)” value was found to be 0.888.

As to A37U C114A, the “polymerase ribozyme fitness (log ratio)” value is -0.828.

As for A37C C72U G120U A121C, the “polymerase ribozyme fitness (log ratio)” value turned out to be 0.205.

Turning to A37U A43G G60A, the “polymerase ribozyme fitness (log ratio)” value was -2.78.

C34U U59G A121C C124G: the “polymerase ribozyme fitness (log ratio)” value was -3.59.

On to C34U C97U, for which the “polymerase ribozyme fitness (log ratio)” value is -4.85.

A37U G48U U55A: the “polymerase ribozyme fitness (log ratio)” value is -1.56.

For A37C A75U C89U C102A, the “polymerase ribozyme fitness (log ratio)” value is -2.92.

Turning to A37U C56G, the “polymerase ribozyme fitness (log ratio)” value is -1.11.

For the variant A37U U59C C70U, the “polymerase ribozyme fitness (log ratio)” value was -1.46.

Regarding G35A U131A, the “polymerase ribozyme fitness (log ratio)” value is -4.99.

Consider A37C G45A A83C A100U G113C, for which the “polymerase ribozyme fitness (log ratio)” value was -4.29.

Turning to G36C G60A, the “polymerase ribozyme fitness (log ratio)” value is -0.627.

As to G36C G61C, the “polymerase ribozyme fitness (log ratio)” value was -2.42.

Consider A37U A46U U131G, for which the “polymerase ribozyme fitness (log ratio)” value is -2.61.

In the case of A37G G47C C64U U87A G120C C124G, the “polymerase ribozyme fitness (log ratio)” value was -3.3.

Turning to A37C U54G G57A, the “polymerase ribozyme fitness (log ratio)” value is -1.35.

For G36A G61A A103C A118U, the “polymerase ribozyme fitness (log ratio)” value was -5.74.

In the case of G35U C115A G120C, the “polymerase ribozyme fitness (log ratio)” value was -5.77.

In the case of A37C G44A A50U G120U, the “polymerase ribozyme fitness (log ratio)” value is -3.3.

Regarding G36C C40A, the “polymerase ribozyme fitness (log ratio)” value is -1.42.

As for G36U U54G G69A, the “polymerase ribozyme fitness (log ratio)” value is -5.06.

In the case of G36A G69A C73A G122A, the “polymerase ribozyme fitness (log ratio)” value is -4.15.

In the case of G36A C70U C76A C85U, the “polymerase ribozyme fitness (log ratio)” value is -3.99.

Turning to G36A C123A, the “polymerase ribozyme fitness (log ratio)” value came out at 0.117.

For A37U C97U, the “polymerase ribozyme fitness (log ratio)” value was -2.15.

As for A37C G48C U54C G113A, the “polymerase ribozyme fitness (log ratio)” value was -2.76.

G36A C102A C104A G120U: the “polymerase ribozyme fitness (log ratio)” value is -4.83.

Turning to G36U G71A G120C C123G, the “polymerase ribozyme fitness (log ratio)” value is -1.

For A37U G51C C88A, the “polymerase ribozyme fitness (log ratio)” value is -5.1.

As for A37U U54A C123U C124G, the “polymerase ribozyme fitness (log ratio)” value turned out to be 1.44.

For the origin of these results see the RNAGym collection of RNA variant scans (doi:10.1073/pnas.2313332121).
